Drawing on patent US11814439, this text covers EC50 of ADCC assay Using Primary NK Cells, CDC EC50 (Jeko-1 cells, rabbit complement) and EC50 for four substances.

The term EC50 denotes the concentration needed to bring the measured effect to its halfway point.

The target of assay [1] is FcγIIIA Receptor on the effector cells (CD16 / FcγRIII) (human) (UniProt P08637). In words: cell-based or functional assay.
Assay [2] has as its target C1q Receptor in the complement system (rabbit serum as the source of complement) (rabbit). In words: cell-based or functional assay.
Assay [3] deals with CD20 on Jeko-1, Raji and Daudi cells (human) (UniProt P11836). In words: FACS on Raji cells, PE anti-human secondary antibody.
CD20 on Jeko-1, Raji and Daudi cells (human), sequence (P11836 whole entry): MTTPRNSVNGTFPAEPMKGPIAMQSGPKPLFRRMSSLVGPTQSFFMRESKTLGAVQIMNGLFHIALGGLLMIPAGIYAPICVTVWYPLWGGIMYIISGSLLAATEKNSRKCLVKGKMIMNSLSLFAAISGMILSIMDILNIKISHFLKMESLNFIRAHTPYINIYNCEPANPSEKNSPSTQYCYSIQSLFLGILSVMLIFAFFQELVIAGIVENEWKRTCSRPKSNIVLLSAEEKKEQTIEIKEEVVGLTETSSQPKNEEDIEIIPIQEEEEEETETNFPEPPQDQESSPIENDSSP
The target is the same in assay [4]. In words: FACS on Daudi cells, PE anti-human secondary antibody.

FcγIIIA Receptor on the effector cells (CD16 / FcγRIII) (human), sequence (P08637 17-254): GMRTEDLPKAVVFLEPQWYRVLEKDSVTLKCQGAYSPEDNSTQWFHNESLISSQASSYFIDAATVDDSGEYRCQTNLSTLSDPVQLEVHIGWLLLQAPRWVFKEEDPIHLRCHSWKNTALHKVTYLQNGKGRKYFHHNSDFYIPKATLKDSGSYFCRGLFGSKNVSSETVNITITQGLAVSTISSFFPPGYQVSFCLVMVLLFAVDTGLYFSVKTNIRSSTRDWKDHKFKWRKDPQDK

For the substance GAZYVA (obinutuzumab) (antibody), the EC50 of ADCC assay Using Primary NK Cells in assay [1] is 19 µg/mL.

For the substance ARZERRA (ofatumumab) (antibody), the CDC EC50 (Jeko-1 cells, rabbit complement) in assay [2] was 0.353 µg/mL. The same substance registered an EC50 of ADCC assay Using Primary NK Cells in assay [1] of 500 µg/mL. The results for the EC50 in assay [3] and in assay [4] were 0.00873 ng/mL and 0.000793 ng/mL, respectively.

In assay [2], RITUXAN (rituximab) (antibody) gave a CDC EC50 (Jeko-1 cells, rabbit complement) of 0.245 µg/mL. Moreover, the EC50 of ADCC assay Using Primary NK Cells in assay [1] came out at 1390 µg/mL.

OCREVUS (ocrelizumab) (antibody): the CDC EC50 (Jeko-1 cells, rabbit complement) in assay [2] came to 1.21 µg/mL.
